T1: human FLT3 (human, UniProt P36888 27-541, limits assumed)
T1 construct: Soluble analyte hFLT3 in SPR; also called hFLT3; huFlt3
T1 sequence: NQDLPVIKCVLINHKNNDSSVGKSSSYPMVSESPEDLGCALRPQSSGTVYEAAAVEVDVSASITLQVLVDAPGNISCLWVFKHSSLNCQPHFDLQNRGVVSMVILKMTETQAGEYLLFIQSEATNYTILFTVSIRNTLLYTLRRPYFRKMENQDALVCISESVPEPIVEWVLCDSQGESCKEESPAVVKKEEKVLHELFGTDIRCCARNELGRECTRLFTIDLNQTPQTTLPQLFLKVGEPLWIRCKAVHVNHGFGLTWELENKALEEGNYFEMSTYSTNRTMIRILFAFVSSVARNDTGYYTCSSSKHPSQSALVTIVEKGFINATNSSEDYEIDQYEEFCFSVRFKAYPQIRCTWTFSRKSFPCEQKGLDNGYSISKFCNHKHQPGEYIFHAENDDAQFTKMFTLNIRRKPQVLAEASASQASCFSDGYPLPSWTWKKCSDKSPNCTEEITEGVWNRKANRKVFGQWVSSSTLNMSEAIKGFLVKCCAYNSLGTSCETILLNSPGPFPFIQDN

B1: P7H3 (scFv format) (scFv, not shown: a dimerising Fc or GST; small tags and cut ends)
scFv: EVQLLESGGGLVQPGGSLRLSCAASGFTFSSYAMHWVRQAPGKGLEWVSAISGSGGSTYYADSVKGRFTISRDNSKNTLYLQMNSLRAEDTAVYYCARGTRWWWGDAFDHWGQGTLVTVSSGGGGSGGGGSGGGGSQSVLTQPPSVSVAPGKTARITCGGNNIGSKSVHWYQQKPGQAPVLVIYYDSDRPSGIPERFSGSNSGNTATLTISRVEAGDEADYYCQVWDSSTAWVFGGGTKLTVL
B2: P4C7 (scFv format) (scFv, not shown: a dimerising Fc or GST; small tags and cut ends)
scFv: QVQLVQSGAEVKKPGSSVKVSCKASGGTFSSYTISWVRQAPGQGLEWMGGIIPAFGIANYAQKFQGRVTITADKSTSTAYMELSSLRSEDTAVYYCAKGGSYSLDYFDIWGQGTLVTVSSGGGGSGGGGSGGGGSEIVLTQSPGTLSLSPGERATLSCRASQYVSASLLAWYQQKPGQAPRLLIYGASTRATGIPDRFSGSGSGTDFTLTISRLEPEDFAVYYCQQYARSSTFGQGTKVEIK
B3: P7F9 (scFv format) (scFv)
scFv: EVQLLESGGGLVQPGGSLRLSCAASGFTFSSYAMSWVRQAPGKGLEWVSAIGGSGGSTYYADSVKGRFTISRDNSKNTLYLQMNSLRAEDTAMYYCARDYYAFSDPAYGGMDVWGQGTLVTVSSGGGGSGGGGSGGGGSNFMLTQPHSVSESPGKTVTISCTRSSGSIASNYVQWYQQKPGQAPVLVVYDDSDRPSGIPERFSGSNSGNTATLTISRVEAGDEADYYCQVWDSSSDHWVFGGGTKLTVL
B4: P1B11 (scFv format) (scFv, not shown: a dimerising Fc or GST; small tags and cut ends)
scFv: QVQLVQSGAEVKKPGSSVKVSCKASGGTFRSFDISWVRQAPGQGLEWMGRIIPILGYANYAQKFQGRVTITADESTSTAYMELSSLRSEDTAVYYCASDLGAPWAGYPFDPWGQGTLVTVSSGGGGSGGGGSGGGGSEIVLTQSPGTLSLSPGERATLSCRASQSVSSSELAWYQQKPGQAPRLLIYDASSRATGIPDRFSGSGSGTDFTLTISRLEPEDFAVYYCQQYDSSPLTFGQGTKVEIK
B5: P3E10 (scFv format) (scFv)
scFv: QVQLVQSGAEVKKPGSSVKVSCKASGGTFSSYAIQWVRQAPGQGLEWMGGIVGSWGLANYAQKFQGRVTITTDKSTSTAYMELSSLRSEDTAVYYCATSAFGELASWGQGTLVTVSSGGGGSGGGGSGGGGSEIVLTQSPGTLSLSPGERATLSCRASQSVPSSQLAWYQQKPGQAPRLLIYDASSRATGIPDRFSGSGSGTDFTLTISRLEPEDFAVYYCQQYGSSPLTFGQGTKVEIK
B6: P14G2 (scFv format) (scFv)
scFv: EVQLLESGGGLVQPGGSLRLSCAASGFTFSNYVMNWVRQAPGKGLEWVSAISGSGATTYYADSVKGRFTISRDNSKNTLYLQMNSLRAEDTAVYYCVSGLWAGGIWGQGTLVTVSSGGGGSGGGGSGGGGSDIQMTQSPSSLSASVGDRVTITCRASQSISSYLNWYQQKPGKAPKLLIYDASDLQRGVPSRFSGSGSGTDFTLTISSLQPEDFATYYCQQSYNTPWTFGQGTKVEIK
B7: P4H11 (scFv format) (scFv)
scFv: EVQLLESGGGLVQPGGSLRLSCAASGFTFSSYAMNWVRQAPGKGLEWVSSISGGGRSTYYADSVKGRFTISRDNSKNTLYLQMNSLRAEDTAVYYCARDLSPSDVGWGYGFDIWGQGTLVTVSSGGGGSGGGGSGGGGSEIVLTQSPGTLSLSPGERATLSCRASQSVSNTYLAWYQQKPGQAPRLLIYDTSSRATGIPDRFSGSGSGTDFTLTISRLEPEDFAVYYCQQYGSSLTFGQGTKVEIK
B8: P1B4 (scFv format) (scFv, not shown: a dimerising Fc or GST; small tags and cut ends)
scFv: QVQLVQSGAEVKKPGSSVKVSCKASGGVFSRYALSWVRQAPGQGLEWMGGIIPMLGFANYAQKFQGRVTITADESTSTAYMELSSLRSEDTAVYYCATLDFGALDYWGQGTLVTVSSGGGGSGGGGSGGGGSEIVLTQSPGTLSLSPGERATLSCRASQSVPNEQLAWYQQKPGQAPRLLIYDASSRATGIPDRFSGSGSGTDFTLTISRLEPEDFAVYYCQQYGSPPLTFGQGTKVEIK
B9: P1A5 (scFv format) (scFv)
scFv: QVQLVQSGAEVKKPGSSVKVSCKASGGVFSRYALSWVRQAPGQGLEWMGGIIPMLGFANYAQKFQGRVTITADESTSTAYMELSSLRSEDTAVYYCATLDFGALDYWGQGTLVTVSSGGGGSGGGGSGGGGSEIVLTQSPGTLSLSPGERATLSCRASQAVDSSDLAWYQQKPGQAPRLLIYDAYTRPSGIPDRFSGSGSGTDFTLTISRLEPEDFAVYYCQQYGSSPLTFGGGTKLEIK
B10: P5A3 (scFv format) (scFv, not shown: a dimerising Fc or GST; small tags and cut ends)
scFv: QVQLVQSGAEVKKPGSSVKVSCKASGGTFSSYYIGWVRQAPGQGLEWMGGIIPWFGTANYAQKFQGRVTITADKSTNTAYMELSSLRSEDTAVYYCAADHHDSPSGYTSGGFDVWGQGTLVTVSSGGGGSGGGGSGGGGSQSALTQPASVSGSPGQSITISCTGTSSDVGGYNYVSWYQQHPGKAPKLMIYEVSKRPSGVPDRFSGSKSGNTASLTVSGLQAEDEADYYCSSYAGSNTVVFGGGTKLTVL
B11: P9F1 (scFv format) (scFv, not shown: a dimerising Fc or GST; small tags and cut ends)
scFv: EVQLLESGGGLVQPGGSLRLSCAASGFIFSSFAMSWVRQAPGKGLEWVSDISGSGASTYYADSVKGRFTISRDNSKNTLYLQMNSLRAEDTAVYYCASASGGSGSYWPYMDPWGQGTLVTVSSGGGGSGGGGSGGGGSQSVLTQPPSASGTPGQRVTISCSGSGSNIGSNYVYWYQQLPGTAPKLLIYRNNQRPSGVPDRFSGSKSGTSASLAISGLRSEDEADYYCAAWDGSLSRPVFGTGTKLTVL
B12: P9B5 (scFv format) (scFv, not shown: a dimerising Fc or GST; small tags and cut ends)
scFv: EVQLLESGGGLVQPGGSLRLSCAASGFIFASYAMSWVRQAPGKGLEWVSEISSSGGSTTYADSVKGRFTISRDNSKNTLYLQMNSLRAEDTAVYYCARDRVMAGLGYDPFDYWGQGTLVTVSSGGGGSGGGGSGGGGSQSVLTQPPSASGTPGQRVTISCSGSSSNIGSNYVYWYQQLPGTAPKLLIYRNNQRPSGVPDRFSGSKSGTSASLAISGLRSEDEADYYCAAWDDSLSGVVFGGGTKLTVL
B13: P5F7 (scFv format) (scFv)
scFv: EVQLLESGGGLVQPGGSLRLSCAASGFTFSSYAMNWVRQAPGKGLEWVSSISGGGRSTYYADSVKGRFTISRDNSKNTLYLQMNSLRAEDTAVYYCARDLSPSDVGWGYGFDIWGQGTLVTVSSGGGGSGGGGSGGGGSEIVLTQSPATLSLSPGERATLSCRASQSVSSNLAWYQQKPGQAPRLLIYDTFTRATGIPARFSGSGSGTDFTLTISRLEPEDFAVYYCQQYGSSPPTFGQGTRLEIK

These binders were tested against T1, human FLT3 (assay: SPR Biacore T200, 37C; scFv format).

B1 and B2 are within 1.5-fold of each other in Kd: 9.1 nM for the first, 13.6 nM for the second.

B3 and B4 are within 1.5-fold of each other in Kd: 27.7 nM for the first, 30.3 nM for the second.

First: B5
Second: B6
The Kd of the first is 20-fold higher: 65.1 nM for the first, 3.3 nM for the second.

Going from B7 to B8, the Kd falls from 58.3 nM to 27.3 nM (2.1-fold).

Going from B9 to B10, the Kd rises from 1.1 nM to 216 nM (200-fold). The first binds more tightly here.

Going from B11 to B12, the Kd falls from 126 nM to 18.1 nM (7-fold).

Binder B13 has a Kd of 1 nM.

B1 and B2 are within 1.5-fold of each other in koff: 0.00187 s⁻¹ for the first, 0.00164 s⁻¹ for the second.

B3 and B4 are within 1.5-fold of each other in koff: 0.00241 s⁻¹ for the first, 0.00257 s⁻¹ for the second.

First: B5
Second: B6
The koff of the first is 37-fold higher: 0.0112 s⁻¹ for the first, 0.000305 s⁻¹ for the second.

Going from B7 to B8, the koff falls from 0.00933 s⁻¹ to 0.00327 s⁻¹ (2.9-fold).

Going from B9 to B10, the koff rises from 0.000292 s⁻¹ to 0.0175 s⁻¹ (60-fold).

Going from B11 to B12, the koff falls from 0.0286 s⁻¹ to 0.000687 s⁻¹ (42-fold).

Work on B13 yielded a koff of 0.000197 s⁻¹.

Going from B1 to B2, the kon falls from 205000 M⁻¹ s⁻¹ to 121000 M⁻¹ s⁻¹ (1.7-fold).

B3 and B4 are within 1.5-fold of each other in kon: 87000 M⁻¹ s⁻¹ for the first, 84700 M⁻¹ s⁻¹ for the second.

Going from B5 to B6, the kon falls from 172000 M⁻¹ s⁻¹ to 93500 M⁻¹ s⁻¹ (1.8-fold).

B7 and B8 are within 1.5-fold of each other in kon: 160000 M⁻¹ s⁻¹ for the first, 120000 M⁻¹ s⁻¹ for the second.

Going from B9 to B10, the kon falls from 259000 M⁻¹ s⁻¹ to 81000 M⁻¹ s⁻¹ (3.2-fold).

Going from B11 to B12, the kon falls from 226000 M⁻¹ s⁻¹ to 38000 M⁻¹ s⁻¹ (5.9-fold).

With B13 the kon was 189000 M⁻¹ s⁻¹.

B1 and B2 are within 1.5-fold of each other in t1/2: 6.2 min for the first, 7 min for the second.

B3 and B4 are within 1.5-fold of each other in t1/2: 4.8 min for the first, 4.5 min for the second.

Going from B5 to B6, the t1/2 rises from 1 min to 37.9 min (38-fold).

Compared with B7, B8 is 3.5-fold higher in t1/2: 1 min for the first, 3.5 min for the second.

Going from B9 to B10, the t1/2 falls from 40 min to 0.7 min (57-fold).

Going from B11 to B12, the t1/2 rises from 0.4 min to 16.8 min (42-fold).

For B13, the t1/2 was 59 min.

Reference: US12296012 (Pfizer, dated 2025)
